Results published in the DeepSol protein solubility set.

Assay: soluble on expression in E. coli; label from the status in PepcDB or PDB records

Sequence | soluble on expression in E. coli
MGSDKIHHHHHHMKQMNVVLIGGGTGLSVLARGLREFPIDITAIVTVADNGGSTGKIRDVMDIPAPGDIRNVIAALSDSESILTQLFQYRFGENQVDGHSLGNLVIAGMTNITNDFGHAIKELSKVLNIKGQVIPSTNASVQLNAVMEDGEIVHGETNIPKTHKKIDRVFLEPSDVEPMNEAIEALEQADLIVLGPGSLYTSVISNLCVKGISEALLRTSAPKLYVSNVMTQPGETDNYDVKEHIDALTRQVGEPFIDFVICSSESYSKDVLQRYEEKNSKPVAVHKEQLKDSGIRVLTASNLVEISNEHYVRHNTKVLSKMIYELALELTSTIRFTPSDKKK | not soluble
MSLTVSFVRIDDRMIHGQTVTRWAKEYPCDGLIAVNDAAAKNKVLIQAYKGASDKKTFVWSKEAFAAKSQKVSDSDSRYFLITKNPVDMKEILVDQGFVPGEVKEIIVGPANDRPGAVKLGNNQSITQEEADAIEAIEKAGYKVKFQLLPDVSIGYWSDFKGKFGEGHHHHHH | soluble
MIYEIKFAHGESNVFAISDIELAPQTEVILRSDKGNFYGKIVREISEEANLEIHHTIVREVNEDDLQVIAKLEERSKQAKDKVRQLVIEQGLEMKIIDVAYNFDQMQLFISFTAENRVDFRLLLRELATTFRIRIELRQIGPRDAAKIHGGLGPCGRPLCCSEFVYEFPNVSIKMAKNQNLSLKQNKLNGLCGRLMCCLTYEDSFYKEAQQLFPDFGEFVTTSEGKGKVVGLNVLKNRVKIRFGEYSKDFELAEIEVNHGLEHHHHHH | soluble
GSSHHHHHHSSGLVPRGSHMRGQRGEVEQMKSCLRVLSQPMPPTAGEAEQAADQQEREGALELLADLCENMDNAADFCQLSGMHLLVGRYLEAGAAGLRWRAAQLIGTCSQNVAAIQEQVLGLGALRKLLRLLDRDACDTVRVKALFAISCLVREQEAGLLQFLRLDGFSVLMRAMQQQVQKLKVKSAFLLQNLLVGHPEHKGTLCSMGMVQQLVALVRTEHSPFHEHVLGALCSLVTDFPQGVRECREPELGLEELLRHRCQLLQQHEEYQEELEFCEKLLQTCFSSPADDSMDR | soluble
MAHHHHHHMISYSGVLYTSDLMAQLMEMVKYSTHASSRDSDAQRLLRYAVRGSSAAQDDLYRSLWLKVEMVADSRVLGRYIGAREPWSPIRVCFDERGLFKSYPPLVHASAKKTSAIEADATSGSGSTTMEEEQRQQSERQGMSTEITSHTSEGGEEMVEGVRGAVVAEASEASGVKDVALQEASHGEQRTVEALDLRWDDIHRLIERTRALTSPPTERHPQQEKMEIFTGIAVYLRTIATGRRYCSGEEEAGGEYPAESRERALFAVGYELDVWARLFELVQEVRHDMEKFITDNAAHHVEPEFECWEALLITLRCILDFCVVRTQEKGKEERAAVEELFEKTMKLRNELVEESRTRFGGRMRILWLQEA | not soluble
MSLNGTFEATKSCPAYLSKNRKSNPDNLMVEPNQKYQLKEINKTKPDWLRIQFSDHQPNLRWVSVDCGVIEYTERPKASCDLSPGMADSYVLALSSQPGFCETYGYEIGKPECLKLTKTVYQANHLILHGLWPNQEACGHNYGYCGISPRTNHCDYSPLDLSSDVAQNLKKLMPSYNYGSCLERHEWNKHGSCQDLSTDGYFSLAMRLTTEVNNTEFGQYLTAHRGDTVKLTTLRELIKRSFGENNTGKVTLSCKNGILVDIYVQLPALIPFKESLESLVDKASEGHHHHHH | not soluble
MHHHHHHSSGVDLGTENLYFQSNAMSHSIEQLSINTIRTLSIDAIEKANSGHPGMPMGAAPMAYTLWTQFMKHNPNNPTWFNRDRFVLSAGHGSMLLYSLLHLSGYDVTMDDLKNFRQWGSKTPGHPEYGHTAGVDATTGPLGQGIATAVGMAMAERHLAAKYNRDAYNIVDHYTYAICGDGDLMEGVSAEASSLAAHLQLGRLVVLYDSNDISLDGDLNRSFSESVEDRYKAYGWQVIRVEDGNDIEAIAKAIEEAKADEKRPTLIEVRTTIGFGSPNKSGKSASHGSPLGVEETKLTKEAYAWTAEQDFHVAEEVYENFRKTVQDVGETAQAEWNTMLGEYAQAYPELANELQAAMNGLLPEGWEQNLPTYELGSKAATRNSSGAVINAIAESVPSFFGGSADLAGSNKTYMNNEKDFTRDDYSGKNIWYGVREFAMGAAMNGIALHGGLKTYGGTFFVFSDYLRPAIRLAALMQLPVTYVFTHDSIAVGEDGPTHEPIEQLAALRAMPNVSVIRPADGNESVAAWRLALESTNKPTALVLTRQDLPTLEGAKDDTYEKVAKGAYVVSASKKETADVILLATGSEVSLAVEAQKALAVDGVDASVVSMPSMDRFEAQTAEYKESVLPKAVTKRFAIEMGATFGWHRYVGLEGDVLGIDTFGASAPGEKIMEEYGFTVENVVRKVKEML | soluble
NKMPVIEVQGIVPTEIIVSPRYYRMGFVGGDLSVPVGQFVFRGEAAFNIDKHFTYKSHAEQEGFQTINWLAGADWYAPGEWMISGQFSMESIFRYRDFISQRQHSTLITLNVSKKFFGSTLQLSDFTYYDLTGKGWFSRFAADYALNDQIHLMAGYDWFSSKGSGIFDRYKDNSELWFKARYSF | not soluble
MKFKNILFDFDDTLVDFYDAEKKAFYNLAQKYNHQPTQQDFEHFKKVNQAHWEAFQQNKLTKDEVLSQRFINYFNDYQIHVNGKEADKCFRAELAMAPVKLFDHTLEVIQQLKLNHSLYIVTNGVTETQLRRIAQTQFNEIFQDVFISEKAGFQKPMTEFFDFVFEHIGENNRNQTLIVGDSLTSDILGGKNANISTCWFNIRQKENHTSIQPDYIINDLSEMIRIVE | not soluble
MEQRLLAVFDFDGTITRHDSFVPFLKFAFGQRVFSVRMARLVLPSLGYLTKRLSRDELKGRLIKAFLSGVEVQWLQQKAEAFCHSHWKRLMRPAALESIAAEIEKGAIVTLCSASPAMVLQPFADRLKVELIGTNLEVIDGKLTGLIEGSNCRCDSKVARLESVYGPLTQFRVRAWGDTRGDHELLAAAQDAHWRLFHPTWRRGRYKGPVNAKLHNPDGKDGPTR | not soluble
MAAPAQQTTQPGGGKRKGKAQYVLAKRARRCDAGGPRQLEPGLQGILITCNMNERKCVEEAYSLLNEYGDDMYGPEKFTDKDQQPSGSEGEDDDAEAALKKEVGDIKASTEMRLRRFQSVESGANNVVFIRTLGIEPEKLVHHILQDMYKTKKKKTRVILRMLPISGTCKAFLEDMKKYAETFLEPWFKAPNKGTFQIVYKSRNNSHVNREEVIRELAGIVCTLNSENKVDLTNPQYTVVVEIIKAVCCLSVVKDYMLFRKYNLQEVVKSPKDPSQLNSKQGNGKEAKLESADKSDQNNTAEGKNNQQVPENTEELGQTKPTSNPQVVNEGGAKPELASQATEGSKSNENDFS | not soluble
MADSKAKPAKAANKTPPKSPGDPARAAKRLSLESEGANEGATAAPELSALEEAFRRFAVHGDTRATGKEMHGKNWSKLCKDCHVIDGKNVTVTDVDIVFSKIKGKSCRTITFEQFQEALEELAKKRFKDKSSEEAVREVHRLIEGRAPVISGVTKAVSSPTVSRLTDTSKFTGSHKERFDQSGKGKGKAGRVDLVDESGYVPGYKHAGTYDQKVQGGK | soluble
MAQTQSPLQWLATTLIRGYQIFISPILGPRCRFNPTCSHYAIEAIKVHGTAKGCWFALKRILKCHPLHPGGSDPVPPKNDRCNKLEHHHHHH | not soluble
GPGSMLILLFFSPEMLRRTLSRCFSADAIGPVHPDVMWGYMDARYAGPGWVSWIKQLPVETLTMQGGTSMTNMNDRTGVIADPEDPRHPIALIQWGPMNHYDGAFMQLSYGDYGPISQGSRLMQVLYDNYLEPFSMNRVCAQLYFYQKVPNNYHESVEASAEYIGQTASLIGQVLVGMGSVIMEGVTVKGDTNCVYIAEGVQVLENTCIVSDAPTDLLAYQRHEAINPYQQWDGMDGVCRIMQNTIIEPNCFLDSCSIGPFNRIGHNTKIMKGVTTGTMVHILPGSVVTKDTKIGDGELWGGAPAVKIGKVSKFEWKRPYFASLLHRESVVESYRNMSRYGDQVVHFQDKMGKLDTLMLQYEKDVPASVKAKIKEFVQGREPFHHMLTRITQGWSPANRPDDKNYNLCPPLPGVKLFAEHNNDSSDSDLHGTYMDITNIFNDFRW | not soluble
MSNSTMEATQMKVKLAVDEMIDDLDKTYLRDMQKSMFQCSARCCDNKKTTRDAVENCVESCNDGMKKAQGYLEKELGGLQDQLSRCAMTCYDKLVQQFGPDVNKYSESQKLSFNEKLDSCVSVCADDHIKLIPAIKKRFAKNT | not soluble
PIPAWASGNLLTQAIRQQYYKPIDVDRMYGTIDSPKLEELFNKS | soluble
